Laboratory results published in the supplement of paper PMC7125110.
± gives the standard error. For part of these data: Fewer inactive variants are shown than the library holds.

B1: glmS ribozyme (parent)
chain: AUAAAAGCGCCAGAACUACAGAAAUGUAGUUGACGAGGAGGAGGUUUAUCGAAUUUUCGGCGGAUGCCUCCAAA

Legend:
Details in all cases: with glucosamine-6-phosphate
glucosamine-6-phosphate [1] = variants of: B1; test: kcat; higher = faster cleavage; RNA array
Outline: (§1)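 Weighted Michaelis–Menten fits across concentrations supplied kcat and KM, based on kobs from one- or two-exponential decay fits to normalised per-tile medians. The data came from barcoded ribozyme variants transcribed in situ by E. coli RNA polymerase on sequenced MiSeq chips and tracked at 37 °C by a hybridised Cy3 probe. Glucosamine-6-phosphate (40 μM to 10 mM) in HEPES/KCl/Mg(OAc)2 buffer was flowed in.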

glucosamine-6-phosphate [2] = variants of: B1; test: KM; higher = weaker cofactor use; RNA array
Outline: as §1

glucosamine-6-phosphate [3] = variants of: B1; test: self-cleavage kobs at 640 uM GlcN6P; higher = faster cleavage; RNA array
Outline: as §1

glucosamine-6-phosphate [4] = variants of: B1; test: self-cleavage kobs at 2500 uM GlcN6P; higher = faster cleavage; RNA array
Outline: as §1

glucosamine-6-phosphate [5] = variants of: B1; test: self-cleavage kobs at 10000 uM GlcN6P; higher = faster cleavage; RNA array
Outline: as §1

glucosamine-6-phosphate [6] = variants of: B1; test: self-cleavage kobs at 160 uM GlcN6P; higher = faster cleavage; RNA array
Outline: as §1

glucosamine-6-phosphate [7] = variants of: B1; test: self-cleavage kobs at 40 uM GlcN6P; higher = faster cleavage; RNA array
Outline: as §1

Variant: A39U A64U
- kcat (glucosamine-6-phosphate [1]): 4.75e-05 ± 1.7e-06 s⁻¹
- KM (glucosamine-6-phosphate [2]): 537 ± 120 µM
- self-cleavage kobs at 640 uM GlcN6P (glucosamine-6-phosphate [3]): 2.64e-05 ± 9.3e-06 s⁻¹
- self-cleavage kobs at 2500 uM GlcN6P (glucosamine-6-phosphate [4]): 4e-05 ± 7e-06 s⁻¹
- self-cleavage kobs at 10000 uM GlcN6P (glucosamine-6-phosphate [5]): 4.46e-05 ± 5.4e-06 s⁻¹

Variant: A12U A64U
- kcat (glucosamine-6-phosphate [1]): 0.00027 ± 2.8e-05 s⁻¹
- KM (glucosamine-6-phosphate [2]): 2420 ± 540 µM
- self-cleavage kobs at 640 uM GlcN6P (glucosamine-6-phosphate [3]): 5.21e-05 ± 5.8e-06 s⁻¹
- self-cleavage kobs at 2500 uM GlcN6P (glucosamine-6-phosphate [4]): 0.000168 ± 1.8e-05 s⁻¹
- self-cleavage kobs at 10000 uM GlcN6P (glucosamine-6-phosphate [5]): 0.000211 ± 1.4e-05 s⁻¹

Variant: A12U A64C
- kcat (glucosamine-6-phosphate [1]): 0.000692 ± 7.8e-05 s⁻¹
- KM (glucosamine-6-phosphate [2]): 3580 ± 660 µM
- self-cleavage kobs at 160 uM GlcN6P (glucosamine-6-phosphate [6]): 4.03e-05 ± 1.6e-05 s⁻¹
- self-cleavage kobs at 640 uM GlcN6P (glucosamine-6-phosphate [3]): 0.000107 ± 1.6e-05 s⁻¹
- self-cleavage kobs at 2500 uM GlcN6P (glucosamine-6-phosphate [4]): 0.000264 ± 3.9e-05 s⁻¹
- self-cleavage kobs at 10000 uM GlcN6P (glucosamine-6-phosphate [5]): 0.000531 ± 7.6e-05 s⁻¹

Variant: G13U G29U
- kcat (glucosamine-6-phosphate [1]): 0.000324 ± 4.8e-05 s⁻¹
- KM (glucosamine-6-phosphate [2]): 3430 ± 1000 µM
- self-cleavage kobs at 640 uM GlcN6P (glucosamine-6-phosphate [3]): 4.23e-05 ± 9.2e-06 s⁻¹
- self-cleavage kobs at 2500 uM GlcN6P (glucosamine-6-phosphate [4]): 0.000161 ± 2.1e-05 s⁻¹
- self-cleavage kobs at 10000 uM GlcN6P (glucosamine-6-phosphate [5]): 0.000234 ± 2.3e-05 s⁻¹

Variant: G29A A53U
- kcat (glucosamine-6-phosphate [1]): 0.00212 ± 0.00065 s⁻¹
- self-cleavage kobs at 40 uM GlcN6P (glucosamine-6-phosphate [7]): 9.5e-05 ± 1.9e-05 s⁻¹
- self-cleavage kobs at 160 uM GlcN6P (glucosamine-6-phosphate [6]): 0.000233 ± 5.5e-05 s⁻¹
- self-cleavage kobs at 640 uM GlcN6P (glucosamine-6-phosphate [3]): 0.000595 ± 9.3e-05 s⁻¹
- self-cleavage kobs at 2500 uM GlcN6P (glucosamine-6-phosphate [4]): 0.00129 ± 0.00019 s⁻¹
- self-cleavage kobs at 10000 uM GlcN6P (glucosamine-6-phosphate [5]): 0.00276 ± 0.00055 s⁻¹

Variant: G35C C50G
- kcat (glucosamine-6-phosphate [1]): 0.000276 ± 6.8e-05 s⁻¹
- self-cleavage kobs at 40 uM GlcN6P (glucosamine-6-phosphate [7]): 3.26e-05 ± 1.4e-05 s⁻¹
- self-cleavage kobs at 160 uM GlcN6P (glucosamine-6-phosphate [6]): 7.69e-05 ± 3.7e-05 s⁻¹
- self-cleavage kobs at 640 uM GlcN6P (glucosamine-6-phosphate [3]): 4.8e-05 ± 1.6e-05 s⁻¹
- self-cleavage kobs at 2500 uM GlcN6P (glucosamine-6-phosphate [4]): 0.000107 ± 1.2e-05 s⁻¹
- self-cleavage kobs at 10000 uM GlcN6P (glucosamine-6-phosphate [5]): 0.000205 ± 1.5e-05 s⁻¹

Variant: A14C C50A
- kcat (glucosamine-6-phosphate [1]): < 1e-05 s⁻¹

Variant: A14C C50U
- kcat (glucosamine-6-phosphate [1]): 1.4e-05 ± 6.4e-06 s⁻¹

Variant: U47A U69A
- kcat (glucosamine-6-phosphate [1]): 9.51e-05 ± 1.3e-05 s⁻¹
- self-cleavage kobs at 160 uM GlcN6P (glucosamine-6-phosphate [6]): 0.00011 ± 4.9e-05 s⁻¹
- self-cleavage kobs at 640 uM GlcN6P (glucosamine-6-phosphate [3]): 8.57e-05 ± 2.5e-05 s⁻¹
- self-cleavage kobs at 2500 uM GlcN6P (glucosamine-6-phosphate [4]): 0.000188 ± 8e-05 s⁻¹
- self-cleavage kobs at 10000 uM GlcN6P (glucosamine-6-phosphate [5]): 8.87e-05 ± 2e-05 s⁻¹

Variant: A36U A52G
- kcat (glucosamine-6-phosphate [1]): 1.01e-05 ± 3e-06 s⁻¹
- self-cleavage kobs at 40 uM GlcN6P (glucosamine-6-phosphate [7]): < 1e-05 s⁻¹
- self-cleavage kobs at 10000 uM GlcN6P (glucosamine-6-phosphate [5]): < 1e-05 s⁻¹

Variant: U54A C68G
- kcat (glucosamine-6-phosphate [1]): 9.86e-05 ± 2.8e-06 s⁻¹
- KM (glucosamine-6-phosphate [2]): 31 ± 7.5 µM
- self-cleavage kobs at 40 uM GlcN6P (glucosamine-6-phosphate [7]): 5.44e-05 ± 1.6e-05 s⁻¹
- self-cleavage kobs at 160 uM GlcN6P (glucosamine-6-phosphate [6]): 8.95e-05 ± 2.1e-05 s⁻¹
- self-cleavage kobs at 640 uM GlcN6P (glucosamine-6-phosphate [3]): 8.94e-05 ± 1.3e-05 s⁻¹
- self-cleavage kobs at 2500 uM GlcN6P (glucosamine-6-phosphate [4]): 0.000106 ± 1.9e-05 s⁻¹
- self-cleavage kobs at 10000 uM GlcN6P (glucosamine-6-phosphate [5]): 9.77e-05 ± 9.3e-06 s⁻¹

Variant: A42C U49G
- kcat (glucosamine-6-phosphate [1]): 1.03e-05 ± 3.2e-07 s⁻¹
- KM (glucosamine-6-phosphate [2]): 512 ± 51 µM

Variant: G44U
- kcat (glucosamine-6-phosphate [1]): 0.000429 ± 5.3e-05 s⁻¹
- KM (glucosamine-6-phosphate [2]): 2040 ± 470 µM
- self-cleavage kobs at 160 uM GlcN6P (glucosamine-6-phosphate [6]): 2.34e-05 ± 1.7e-06 s⁻¹
- self-cleavage kobs at 640 uM GlcN6P (glucosamine-6-phosphate [3]): 0.000101 ± 2.1e-06 s⁻¹
- self-cleavage kobs at 2500 uM GlcN6P (glucosamine-6-phosphate [4]): 0.000282 ± 6.2e-06 s⁻¹
- self-cleavage kobs at 10000 uM GlcN6P (glucosamine-6-phosphate [5]): 0.000335 ± 6.6e-06 s⁻¹

Variant: C11A C68G
- kcat (glucosamine-6-phosphate [1]): < 1e-05 s⁻¹

Variant: G35U A53U
- kcat (glucosamine-6-phosphate [1]): < 1e-05 s⁻¹
- self-cleavage kobs at 640 uM GlcN6P (glucosamine-6-phosphate [3]): < 1e-05 s⁻¹

Variant: A39C U47A
- kcat (glucosamine-6-phosphate [1]): 0.00575 ± 0.0015 s⁻¹
- KM (glucosamine-6-phosphate [2]): 4090 ± 1400 µM
- self-cleavage kobs at 40 uM GlcN6P (glucosamine-6-phosphate [7]): 8.72e-05 ± 1.3e-05 s⁻¹
- self-cleavage kobs at 160 uM GlcN6P (glucosamine-6-phosphate [6]): 0.000179 ± 2.3e-05 s⁻¹
- self-cleavage kobs at 640 uM GlcN6P (glucosamine-6-phosphate [3]): 0.000865 ± 0.0001 s⁻¹
- self-cleavage kobs at 2500 uM GlcN6P (glucosamine-6-phosphate [4]): 0.0021 ± 0.00033 s⁻¹
- self-cleavage kobs at 10000 uM GlcN6P (glucosamine-6-phosphate [5]): 0.00409 ± 0.00043 s⁻¹

Variant: C34G C68G
- kcat (glucosamine-6-phosphate [1]): 2.55e-05 ± 1e-05 s⁻¹

Variant: U47G C50A C67U
- kcat (glucosamine-6-phosphate [1]): 4.13e-05 ± 1.8e-05 s⁻¹
- self-cleavage kobs at 640 uM GlcN6P (glucosamine-6-phosphate [3]): 6.02e-05 ± 2.6e-05 s⁻¹
- self-cleavage kobs at 2500 uM GlcN6P (glucosamine-6-phosphate [4]): 7.44e-05 ± 3.1e-05 s⁻¹
